Key:
Experiment in all cases: cell-based or functional assay
[1] = target: T1, PfRH5 from Plasmodium falciparum strain 7G8 (Plasmodium falciparum)
[2] = target: T2, PfRH5 from Plasmodium falciparum strain 3D7 (Plasmodium falciparum, UniProt Q8IFM5 25-526)
T2 sequence: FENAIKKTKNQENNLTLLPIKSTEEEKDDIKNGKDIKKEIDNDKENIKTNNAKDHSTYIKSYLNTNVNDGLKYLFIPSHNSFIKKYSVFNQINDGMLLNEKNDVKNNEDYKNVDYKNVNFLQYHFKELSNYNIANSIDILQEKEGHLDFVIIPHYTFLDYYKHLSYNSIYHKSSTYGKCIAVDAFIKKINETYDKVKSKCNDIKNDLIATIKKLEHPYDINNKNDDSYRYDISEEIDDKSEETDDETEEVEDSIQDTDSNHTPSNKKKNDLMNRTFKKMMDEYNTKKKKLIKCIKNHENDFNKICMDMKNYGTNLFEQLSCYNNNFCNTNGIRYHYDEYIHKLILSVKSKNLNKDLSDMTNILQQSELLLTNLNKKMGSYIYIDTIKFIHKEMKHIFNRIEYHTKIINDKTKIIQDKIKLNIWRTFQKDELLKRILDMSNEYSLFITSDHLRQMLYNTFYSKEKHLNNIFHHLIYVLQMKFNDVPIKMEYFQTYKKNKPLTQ

[3] = target: PfRH5 from Plasmodium falciparum strain D10 (Plasmodium falciparum)
[4] = target: T3, PfRH5 from Plasmodium falciparum strain Dd2 (Plasmodium falciparum)
[5] = target: T1, PfRH5 from Plasmodium falciparum strain …; remark: listed apart in the source
[6] = target: PfRH5 from Plasmodium falciparum strain W2-mef (Plasmodium falciparum)
[7] = target: T2, PfRH5 from Plasmodium falciparum strain …; remark: listed apart in the source
[8] = target: PfRH5 from Plasmodium falciparum strain HB3 (Plasmodium falciparum)
[9] = target: T4, PfRH5 from Plasmodium falciparum strain FCR-1/FVO (Plasmodium falciparum)
[10] = target: PfRH5 from Plasmodium falciparum strain Cam3.II (Plasmodium falciparum)
[11] = target: PfRH5 from Plasmodium falciparum strain RF7 (Plasmodium falciparum)
[12] = target: T4, PfRH5 from Plasmodium falciparum strain …; remark: listed apart in the source
[13] = target: T3, PfRH5 from Plasmodium falciparum strain …; remark: listed apart in the source

B1: H1H29147P2 (antibody, V domains shown)
VH: QVQLVQSGAEVKNPGSSVKVSCKASGGTFSSYTINWVRQAPGQGLEWMGGIIPLYGTANYAQKFQARVTISTDESTNTAYMELSNLRFEDTAVYFCASTLELRAFDAFDIWGQGTMVTVSS
VL: not shown
Max growth inhibition (%), Chloroquine Phosphate N/A [1]: 47.3% | Max growth inhibition (%), Chloroquine Phosphate N/A [2]: 34.9% | Max growth inhibition (%) [3]: 81.4% | Max growth inhibition (%) [4]: 65.3% | Max growth inhibition (%) [5]: 65.2% | Max growth inhibition (%) [6]: 64.7% | Max growth inhibition (%) [7]: 60.3% | Max growth inhibition (%) [8]: 64.8% | Max growth inhibition (%) [9]: 70.3% | Max growth inhibition (%) [10]: 51.9% | Max growth inhibition (%) [11]: 31.4% | Percent Maximum Growth Inhibition, mAb (6.67 µM) + AHIS (10%) [12]: 86.2% | Percent Maximum Growth Inhibition, mAb (6.67 µM) + ANS (10%) [12]: 80.3% | Percent Maximum Growth Inhibition, mAb (6.67 µM) + HHIS (10%) [12]: 83.4% | Percent Maximum Growth Inhibition, mAb (6.67 µM) + HNS (10%) [12]: 85.6% | Percent Maximum Growth Inhibition, mAb (6.67 µM) + No serum [12]: 84.1%

B2: H1H29100P (antibody, V domains shown)
VH: QLQLQESGPGLVKPSETLSLTCTVSGGSISSSSYYWGWIRQPPGKGLEWIGIIYYSGSTYYNPSLKSRVTISVDTSKNQFSLKLSSVTAADTAVYYCARQDREALFDYWGQGTLVTVSS
VL: EIVLTQSPDFQSVTPKEKVTITCRASQRIGSSLHWYQQKPDQSPKLLIKYASQSFSGVPSRFSGSGSGTDFTLTINSLEAEDAATYYCHQSSTLPTFGQGTRLEIKR
Maximum growth inhibition (%) [13]: 65.7% | Max growth inhibition (%), Chloroquine Phosphate N/A [1]: 48.9% | Max growth inhibition (%), Chloroquine Phosphate N/A [2]: 58% | Max growth inhibition (%) [3]: 81.7% | Max growth inhibition (%) [4]: 64.6% | Max growth inhibition (%) [5]: 66.4% | Max growth inhibition (%) [6]: 67.3% | Max growth inhibition (%) [8]: 62.6% | Max growth inhibition (%) [9]: 66.9% | Max growth inhibition (%) [10]: 52.4% | Max growth inhibition (%) [11]: 17% | Percent Maximum Growth Inhibition, mAb (6.67 µM) + AHIS (10%) [12]: 82.5% | Percent Maximum Growth Inhibition, mAb (6.67 µM) + ANS (10%) [12]: 73.2% | Percent Maximum Growth Inhibition, mAb (6.67 µM) + HHIS (10%) [12]: 81.9% | Percent Maximum Growth Inhibition, mAb (6.67 µM) + HNS (10%) [12]: 82.4% | Percent Maximum Growth Inhibition, mAb (6.67 µM) + No serum [12]: 83.9%

B3: H1H29089P (antibody, V domains shown)
VH: EVQLVQSGAEVKKPGESLKISCKGSGYSFTSYWIVWVRQMPGKGLEWMGIIYPGDSDTRYSPSFQGQVTISADKSISTAYLQWSSLKASDTAMYYCARQDITGTTGFDYWGQGTLVTVSS
VL: DIQMTQSPSSLSASVGDRVTITCRASQSIRNYLNWYQQKPGKAPKLLIYAASSLQSGVPSRFSGSGSGTDFTLTISSLQPEDFATYFCQQSYSTPFTFGPGTKVDIKR
Max growth inhibition (%), Chloroquine Phosphate N/A [1]: 51.1% | Max growth inhibition (%), Chloroquine Phosphate N/A [2]: 61.1% | Max growth inhibition (%) [3]: 82.3% | Max growth inhibition (%) [4]: 71.3% | Max growth inhibition (%) [5]: 70.1% | Max growth inhibition (%) [6]: 66.4% | Max growth inhibition (%) [7]: 67.6% | Max growth inhibition (%) [8]: 59.1% | Max growth inhibition (%) [9]: 66% | Max growth inhibition (%) [10]: 56.2% | Max growth inhibition (%) [11]: 28.9% | Percent Maximum Growth Inhibition, mAb (6.67 µM) + AHIS (10%) [12]: 84.3% | Percent Maximum Growth Inhibition, mAb (6.67 µM) + ANS (10%) [12]: 75.7% | Percent Maximum Growth Inhibition, mAb (6.67 µM) + HHIS (10%) [12]: 85.2% | Percent Maximum Growth Inhibition, mAb (6.67 µM) + HNS (10%) [12]: 85% | Percent Maximum Growth Inhibition, mAb (6.67 µM) + No serum [12]: 85.3%
